Laboratory results published in patent publication US12559743, “Engineered guide scaffolds” (Scribe Therapeutics Inc.).

Target: T1, CasX 491 (engineered CasX)
T1 chain: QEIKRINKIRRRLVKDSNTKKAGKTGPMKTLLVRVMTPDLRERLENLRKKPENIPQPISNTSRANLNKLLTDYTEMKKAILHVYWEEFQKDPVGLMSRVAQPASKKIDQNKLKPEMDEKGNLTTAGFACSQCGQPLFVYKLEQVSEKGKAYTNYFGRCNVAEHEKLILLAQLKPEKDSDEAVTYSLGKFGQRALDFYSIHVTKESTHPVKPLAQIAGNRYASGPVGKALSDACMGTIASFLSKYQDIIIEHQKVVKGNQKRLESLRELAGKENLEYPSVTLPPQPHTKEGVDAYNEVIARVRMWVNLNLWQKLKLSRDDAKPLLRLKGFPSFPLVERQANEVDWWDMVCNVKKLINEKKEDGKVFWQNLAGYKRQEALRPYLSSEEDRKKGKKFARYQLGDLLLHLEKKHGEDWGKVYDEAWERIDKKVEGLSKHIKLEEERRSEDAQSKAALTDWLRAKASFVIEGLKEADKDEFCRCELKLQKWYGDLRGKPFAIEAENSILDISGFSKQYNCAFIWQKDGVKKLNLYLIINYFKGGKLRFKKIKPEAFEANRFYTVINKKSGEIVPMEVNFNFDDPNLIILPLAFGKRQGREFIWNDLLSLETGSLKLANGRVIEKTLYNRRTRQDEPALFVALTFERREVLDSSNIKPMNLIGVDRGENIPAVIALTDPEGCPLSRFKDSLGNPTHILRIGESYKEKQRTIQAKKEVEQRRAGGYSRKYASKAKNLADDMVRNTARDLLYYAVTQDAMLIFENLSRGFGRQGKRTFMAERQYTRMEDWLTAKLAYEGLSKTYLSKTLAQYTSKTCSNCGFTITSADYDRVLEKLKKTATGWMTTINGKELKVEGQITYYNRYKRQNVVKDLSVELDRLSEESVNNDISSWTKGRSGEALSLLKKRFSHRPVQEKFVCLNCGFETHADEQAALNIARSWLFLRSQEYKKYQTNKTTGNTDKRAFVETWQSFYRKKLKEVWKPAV
Experiment: cell_activity; high dose; about 25% greater at low dose; PAM not stated for this spacer
Description: Cells were nucleofected with the indicated doses of p59 plasmids encoding CasX 491, the scaffold, and spacer 11.30 (5' […] 3', SEQ ID NO: 17) targeting mRHO. […] Cells were nucleofected with the indicated doses of p59 plasmids encoding CasX 491, the scaffold, and spacer 12.7 (5' […]-GUUU 3', SEQ ID NO: 1146) targeting repeat elements preventing expression of the tdTomato fluorescent protein. Editing was assessed 5 days post-transfection by FACS, to quantify the fraction of tdTomato positive cells.

B1: sgRNA scaffold 235 + spacer 12.7 ; tdTomato locus target (spacer 12.7 protospacer) (ssRNA ; dsDNA)
RNA: ACUGGCGCUUCUAUCUGAUUACUCUGAGCGCCAUCACCAGCGACUAUGUCGUAGUGGGUAAAGCCGCUUACGGACUUCGGUCCGUAAGAGGCAUCAGAGCUGCAUUCUAGUUGUGGUUU
DNA 1: CTGCATTCTAGTTGTGGTTT
DNA 2: AAACCACAACTAGAATGCAG
activity: ~35 % greater than scaffold 174
